From patent EP2488198B1

Biological target: constitutively activated LFA-1 expressed at a high level on a Jurkat T-lymphocyte cell line (human) (UniProt P20701)
Assay: cell-based or functional assay

constitutively activated LFA-1 expressed at a high level on a Jurkat T-lymphocyte cell line (human), sequence (P20701 26-1170, chain 1 of 2): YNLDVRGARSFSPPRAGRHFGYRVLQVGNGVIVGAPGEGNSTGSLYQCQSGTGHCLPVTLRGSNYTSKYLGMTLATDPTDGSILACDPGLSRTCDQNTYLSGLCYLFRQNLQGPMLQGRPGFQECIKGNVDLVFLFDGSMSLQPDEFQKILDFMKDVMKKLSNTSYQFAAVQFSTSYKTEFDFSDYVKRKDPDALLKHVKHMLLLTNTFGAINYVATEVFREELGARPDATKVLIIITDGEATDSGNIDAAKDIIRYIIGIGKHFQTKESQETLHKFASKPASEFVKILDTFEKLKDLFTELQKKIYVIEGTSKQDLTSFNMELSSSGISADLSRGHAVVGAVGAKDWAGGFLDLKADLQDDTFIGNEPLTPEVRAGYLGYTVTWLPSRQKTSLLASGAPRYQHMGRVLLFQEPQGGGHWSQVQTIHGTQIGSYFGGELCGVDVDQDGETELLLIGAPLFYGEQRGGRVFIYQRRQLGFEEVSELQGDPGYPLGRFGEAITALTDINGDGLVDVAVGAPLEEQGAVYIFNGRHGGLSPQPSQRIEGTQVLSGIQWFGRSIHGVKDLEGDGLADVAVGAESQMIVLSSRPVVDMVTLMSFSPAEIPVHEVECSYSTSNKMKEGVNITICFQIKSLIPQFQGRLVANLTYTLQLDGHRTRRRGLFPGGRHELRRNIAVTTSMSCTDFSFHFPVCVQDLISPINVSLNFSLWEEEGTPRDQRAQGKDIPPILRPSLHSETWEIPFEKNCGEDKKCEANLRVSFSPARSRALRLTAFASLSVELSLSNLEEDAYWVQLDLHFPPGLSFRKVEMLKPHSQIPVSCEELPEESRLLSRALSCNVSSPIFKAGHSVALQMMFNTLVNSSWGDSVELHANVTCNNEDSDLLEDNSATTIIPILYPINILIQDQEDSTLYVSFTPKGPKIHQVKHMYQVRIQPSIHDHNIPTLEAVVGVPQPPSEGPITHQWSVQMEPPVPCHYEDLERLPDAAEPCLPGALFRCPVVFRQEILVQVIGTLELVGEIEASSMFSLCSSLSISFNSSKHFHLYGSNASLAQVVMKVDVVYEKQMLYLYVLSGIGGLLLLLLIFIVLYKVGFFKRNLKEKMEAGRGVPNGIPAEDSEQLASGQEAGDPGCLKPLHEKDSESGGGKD
constitutively activated LFA-1 expressed at a high level on a Jurkat T-lymphocyte cell line (human), sequence (P05107 23-769, chain 2 of 2, further chain): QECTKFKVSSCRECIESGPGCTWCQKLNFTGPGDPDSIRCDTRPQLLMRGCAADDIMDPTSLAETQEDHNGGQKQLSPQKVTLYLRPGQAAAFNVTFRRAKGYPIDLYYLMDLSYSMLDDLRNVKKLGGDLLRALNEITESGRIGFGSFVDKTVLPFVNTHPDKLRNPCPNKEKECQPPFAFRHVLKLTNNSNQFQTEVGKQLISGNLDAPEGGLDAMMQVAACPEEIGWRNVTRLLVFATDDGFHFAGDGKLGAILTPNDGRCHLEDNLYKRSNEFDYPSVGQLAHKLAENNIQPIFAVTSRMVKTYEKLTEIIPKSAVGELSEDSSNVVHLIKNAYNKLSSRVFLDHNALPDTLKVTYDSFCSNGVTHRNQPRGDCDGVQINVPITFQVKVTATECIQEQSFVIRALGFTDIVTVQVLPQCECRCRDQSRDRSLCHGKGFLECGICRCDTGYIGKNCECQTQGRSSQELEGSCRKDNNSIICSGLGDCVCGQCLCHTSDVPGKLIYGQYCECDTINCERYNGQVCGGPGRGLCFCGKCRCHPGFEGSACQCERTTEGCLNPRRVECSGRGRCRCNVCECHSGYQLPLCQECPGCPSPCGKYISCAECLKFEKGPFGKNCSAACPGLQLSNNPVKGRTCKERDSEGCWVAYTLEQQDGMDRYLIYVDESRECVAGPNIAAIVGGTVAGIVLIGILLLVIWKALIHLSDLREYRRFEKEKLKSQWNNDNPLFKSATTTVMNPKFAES

Leukotoxin (LtxA) of Aggregatibacter actinomycetemcomitans strain NJ4500 (from UniProt P16462 1-1055)
sensitivity to LtxA-mediated toxicity: 10 times
